B1: SELP67K: SELP variant, 13 subunits (SEQ ID NO:30) (protein)
chain: MDPVVLQRRDWENPGVTQLNRLAAHPPFASDPMGVGVPGVGVPGVGVPGVGVPGKGVPGVGVPGVGVPGVGVPGAGAGSGAGAGSGAGAGSGAGAGSGAGAGSGAGAGSGVGVPGVGVPGVGVPGVGVPGKGVPGVGVPGVGVPGVGVPGAGAGSGAGAGSGAGAGSGAGAGSGAGAGSGAGAGSGVGVPGVGVPGVGVPGVGVPGKGVPGVGVPGVGVPGVGVPGAGAGSGAGAGSGAGAGSGAGAGSGAGAGSGAGAGSGVGVPGVGVPGVGVPGVGVPGKGVPGVGVPGVGVPGVGVPGAGAGSGAGAGSGAGAGSGAGAGSGAGAGSGAGAGSGVGVPGVGVPGVGVPGVGVPGKGVPGVGVPGVGVPGVGVPGAGAGSGAGAGSGAGAGSGAGAGSGAGAGSGAGAGSGVGVPGVGVPGVGVPGVGVPGKGVPGVGVPGVGVPGVGVPGAGAGSGAGAGSGAGAGSGAGAGSGAGAGSGAGAGSGVGVPGVGVPGVGVPGVGVPGKGVPGVGVPGVGVPGVGVPGAGAGSGAGAGSGAGAGSGAGAGSGAGAGSGAGAGSGVGVPGVGVPGVGVPGVGVPGKGVPGVGVPGVGVPGVGVPGAGAGSGAGAGSGAGAGSGAGAGSGAGAGSGAGAGSGVGVPGVGVPGVGVPGVGVPGKGVPGVGVPGVGVPGVGVPGAGAGSGAGAGSGAGAGSGAGAGSGAGAGSGAGAGSGVGVPGVGVPGVGVPGVGVPGKGVPGVGVPGVGVPGVGVPGAGAGSGAGAGSGAGAGSGAGAGSGAGAGSGAGAGSGVGVPGVGVPGVGVPGVGVPGKGVPGVGVPGVGVPGVGVPGAGAGSGAGAGSGAGAGSGAGAGSGAGAGSGAGAGSGVGVPGVGVPGVGVPGVGVPGKGVPGVGVPGVGVPGVGVPGAGAGSGAGAGSGAGAGSGAGAGSGAGAGSGAGAGSGVGVPGVGVPGVGVPGVGVPGKGVPGVGVPGVGVPGVGVPGAGAGSGAGAGSGAGAGSGAGAGSGAGAGSGAGAGSMDPGRYQDLRSHHHHHH
modifications: SELP 67K
B2: SELP47E-3: SELP variant, 3 subunits, lysine substituted by glutamic acid (SEQ ID NO:28) (protein)
chain: MDPVVLQRRDWENPGVTQLNRLAAHPPFASDPMGAGAGSGAGAGSGVGVPGVGVPGVGVPGVGVPGEGVPGVGVPGVGVPGVGVPGAGAGSGAGAGSGAGAGSGAGAGSGVGVPGVGVPGVGVPGVGVPGEGVPGVGVPGVGVPGVGVPGAGAGSGAGAGSGAGAGSGAGAGSGVGVPGVGVPGVGVPGVGVPGEGVPGVGVPGVGVPGVGVPGAGAGSGAGAGSGAGAMDPGRYQDLRSHHHHHH
modifications: SELP 47E-3
B3: SELP47R-3: SELP variant, 3 subunits, lysine substituted by arginine (SEQ ID NO:26) (protein)
chain: MPPVVLQRRDWENPGVTQLNRLAAHPPFASDPMGAGAGSGAGAGSGVGVPGVGVPGVGVPGVGVPGRGVPGVGVPGVGVPGVGVPGAGAGSGAGAGSGAGAGSGAGAGSGVGVPGVGVPGVGVPGVGVPGRGVPGVGVPGVGVPGVGVPGAGAGSGAGAGSGAGAGSGAGAGSGVGVPGVGVPGVGVPGVGVPGRGVPGVGVPGVGVPGVGVPGAGAGSGAGAGSGAGAMDPGRYQDLRSHHHHHH
modifications: SELP 47R-3
B4: SELP47K-3: SELP variant, 3 subunits, no lysine substitution (SEQ ID NO:27) (protein)
chain: MDPVVLQRRDWENPGVTQLNRLAAHPPFASDPMGAGSGAGAGSGVGVPGVGVPGVGVPGVGVPGKGVPGVGVPGVGVPGVGVPGAGAGSGAGAGSGAGAGSGAGAGSGVGVPGVGVPGVGVPGVGVPGKGVPGVGVPGVGVPGVGVPGAGAGSGAGAGSGAGAGSGAGAGSGVGVPGVGVPGVGVPGVGVPGKGVPGVGVPGVGVPGVGVPGAGAGSGAGAGSGAGAMDPGRYQDLRSHHHHHH
modifications: SELP-47K-3
B5: SELP47E: SELP variant, 13 subunits, lysine substituted by glutamic acid (protein)
chain: MDPVVLQRRDWENPGVTQLNRLAAHPPFASDPMGAGSGAGAGSGVGVPGVGVPGVGVPGVGVPGEGVPGVGVPGVGEPGVGVPGAGAGSGAGAGSGAGAGSGAGAGSGVGVPGVGVPGVGVPGVGVPGEGVPGVGVPGVGEPGVGVPGAGAGSGAGAGSGAGAGSGAGAGSGVGVPGVGVPGVGVPGVGVPGEGVPGVGVPGVGEPGVGVPGAGAGSGAGAGSGAGAGSGAGAGSGVGVPGVGVPGVGVPGVGVPGEGVPGVGVPGVGEPGVGVPGAGAGSGAGAGSGAGAGSGAGAGSGVGVPGVGVPGVGVPGVGVPGEGVPGVGVPGVGEPGVGVPGAGAGSGAGAGSGAGAGSGAGAGSGVGVPGVGVPGVGVPGVGVPGEGVPGVGVPGVGEPGVGVPGAGAGSGAGAGSGAGAGSGAGAGSGVGVPGVGVPGVGVPGVGVPGEGVPGVGVPGVGEPGVGVPGAGAGSGAGAGSGAGAGSGAGAGSGVGVPGVGVPGVGVPGVGVPGEGVPGVGVPGVGEPGVGVPGAGAGSGAGAGSGAGAGSGAGAGSGVGVPGVGVPGVGVPGVGVPGEGVPGVGVPGVGEPGVGVPGAGAGSGAGAGSGAGAGSGAGAGSGVGVPGVGVPGVGVPGVGVPGEGVPGVGVPGVGEPGVGVPGAGAGSGAGAGSGAGAGSGAGAGSGVGVPGVGVPGVGVPGVGVPGEGVPGVGVPGVGEPGVGVPGAGAGSGAGAGSGAGAGSGAGAGSGVGVPGVGVPGVGVPGVGVPGEGVPGVGVPGVGEPGVGVPGAGAGSGAGAGSGAGAGSGAGAGSGVGVPGVGVPGVGVPGVGVPGEGVPGVGVPGVGEPGVGVPGAGAGSGAGAGSGAGAMDPGRYQDLRSHHHHHH
modifications: SELP 47E-13
notes: SELP variant, 13 subunits, lysine substituted by glutamic acid
B6: SELP58: SELP variant, 13 subunits (SEQ ID NO:31) (protein)
chain: MDPVVLQRRDWENPGVTQLNRLAAHPPFASDPMGVGVPGVGVPGVGVPGVGVPGVGVPGVGVPGVGVPGVGVPGAGAGSGAGAGSGAGAGSGAGAGSGAGAGSGVGVPGVGVPGVGVPGVGVPGVGVPGVGVPGVGVPGVGVPGAGAGSGAGAGSGAGAGSGAGAGSGAGAGSGVGVPGVGVPGVGVPGVGVPGVGVPGVGVPGVGVPGVGVPGAGAGSGAGAGSGAGAGSGAGAGSGAGAGSGVGVPGVGVPGVGVPGVGVPGVGVPGVGVPGVGVPGVGVPGAGAGSGAGAGSGAGAGSGAGAGSGAGAGSGVGVPGVGVPGVGVPGVGVPGVGVPGVGVPGVGVPGVGVPGAGAGSGAGAGSGAGAGSGAGAGSGAGAGSGVGVPGVGVPGVGVPGVGVPGVGVPGVGVPGVGVPGVGVPGAGAGSGAGAGSGAGAGSGAGAGSGAGAGSGVGVPGVGVPGVGVPGVGVPGVGVPGVGVPGVGVPGVGVPGAGAGSGAGAGSGAGAGSGAGAGSGAGAGSGVGVPGVGVPGVGVPGVGVPGVGVPGVGVPGVGVPGVGVPGAGAGSGAGAGSGAGAGSGAGAGSGAGAGSGVGVPGVGVPGVGVPGVGVPGVGVPGVGVPGVGVPGVGVPGAGAGSGAGAGSGAGAGSGAGAGSGAGAGSGVGVPGVGVPGVGVPGVGVPGVGVPGVGVPGVGVPGVGVPGAGAGSGAGAGSGAGAGSGAGAGSGAGAGSGVGVPGVGVPGVGVPGVGVPGVGVPGVGVPGVGVPGVGVPGAGAGSGAGAGSGAGAGSGAGAGSGAGAGSGVGVPGVGVPGVGVPGVGVPGVGVPGVGVPGVGVPGVGVPGAGAGSGAGAGSGAGAGSGAGAGSGAGAGSGVGVPGVGVPGVGVPGVGVPGVGVPGVGVPGVGVPGVGVPGAGAGSGAGAGSGAGAGSGAGAGSGAGAGSMDPGRYQLSAGRYHYQLVWCQK
modifications: SELP 58

assay: Isoelectric point determination (IEF gel); format: physicochemical; settings: SELP variants, Table 2
Method: In this Example, experiments performed to determine the isoelectric point and cloud point of SELP47K (Example 1) are described. The isoelectric point of SELP47K was determined by electrophoresing 5 mg/ml SELP47K solution using Isoelectric Focusing Electrophoresis (IEF) gel and Novex electrophoresis apparatus along with protein standards markers.

First: B1
Second: B2
The “Isoelectric Point” value of the first is higher: 10.53 for the first, 5.9 for the second.

Going from B3 to B4, the “Isoelectric Point” value falls from 10.5 to 9.52.

Compared with B5, B6 is higher in “Isoelectric Point” value: 4.16 for the first, 6.7 for the second.
